Results on 29 molecules are retold here after patent US20260167699A1 (Chugai, published 2026).

For this experiment, the target named is T1, FcγRIIIa (human, UniProt P08637 17-208).
T1 construct: extracellular domain; also called 3a; FcγRIIIa extracellular domain
Description: SPR (Biacore).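 Note: antibody variants captured on an SPR sensor chip, with FcγRIIIa passed over as analyte in HBS-EP+ buffer at 25 °C.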
Description: The antibody of interest was analyzed for its interaction with FcγR using a BiaCore™ T100, BiaCore™ A100, or BiaCore™ 4000 surface plasmon resonance system (GE Healthcare Japan Corp.). The running buffer used was HBS-EP+ (GE Healthcare Japan Corp.). The assay temperature was set to 25° C. The sensor chips used were: a chip prepared by immobilizing antigenic peptides onto Series S Sensor Chip CM5 (GE Healthcare Japan Corp.) by the amine coupling method; a chip prepared by immobilizing antigenic peptides biotinylated in advance onto Series S Sensor Chip SA (certified) (GE Healthcare Japan Corp.) through their interaction; a chip prepared by immobilizing protein L (ACTIGEN, BioVision, Inc.) onto Series S Sensor Chip CM5 (GE Healthcare Japan Corp.); and a chip prepared by immobilizing protein A/G (Thermo Fisher Scientific K.K.) onto Series S Sensor Chip CM5 (GE Healthcare Japan Corp.). The antibody of interest was captured onto any of these chips and allowed to interact with FcγR diluted with a running buffer. The antibody captured on the chip was washed off through the reaction of 10 mM glycine-HCl (pH 1.5) to regenerate the chip, which was repetitively used.

T1 sequence (P08637 other isoform, or with tags, fused parts or gaps): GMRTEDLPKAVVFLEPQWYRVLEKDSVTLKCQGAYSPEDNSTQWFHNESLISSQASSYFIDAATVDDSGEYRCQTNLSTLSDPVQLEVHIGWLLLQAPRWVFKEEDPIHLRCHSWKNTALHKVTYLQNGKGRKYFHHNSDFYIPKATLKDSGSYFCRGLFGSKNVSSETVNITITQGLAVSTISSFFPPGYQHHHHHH

B1: GpH7-A5/GpH7-B3 variant P331_13S/GpL16-k0 (antibody, human IgG1, kappa)
heavy 1: not shown
heavy 2: not shown
light: DIVMTQSPLSLPVTPGEPASISCQASESLVHSNRNTYLHWYLQKPGQSPQLLIYKVSNRFSGVPDRFSGSGSGTDFTLKISRVEAEDVGVYYCSQNTHVPPTFGQGTKVEIERTVAAPSVFIFPPSDEQLKSGTASVVCLLNNFYPREAKVQWKVDNALQSGNSQESVTEQDSKDSTYSLSSTLTLSKADYEKHKVYACEVTHQGLSSPVTKSFNRGEC
notes: copies: 1 + 1 + 2
On to B1, for which the “He/Con 3a” value was 80.9 % of GpH7-A5/GpH7-B3/GpL16-k0.

B2: GpH7-A5/GpH7-B3 variant S239_08L/GpL16-k0 (antibody, human IgG1, kappa)
heavy 1: not shown
heavy 2: not shown
light: B1 light
notes: copies: 1 + 1 + 2
As to B2, the “He/Con 3a” value was 90 % of GpH7-A5/GpH7-B3/GpL16-k0.

B3: GpH7-A5/GpH7-B3 variant P331_12R/GpL16-k0 (antibody, human IgG1, kappa)
heavy 1: not shown
heavy 2: not shown
light: B1 light
notes: copies: 1 + 1 + 2
Regarding B3, the “He/Con 3a” value was 64.8 % of GpH7-A5/GpH7-B3/GpL16-k0.

B4: GpH7-A5/GpH7-B3 variant S267_09D/GpL16-k0 (antibody, human IgG1, kappa)
heavy 1: not shown
heavy 2: not shown
light: B1 light
notes: copies: 1 + 1 + 2
Turning to B4, the “He/Con 3a” value was 179 % of GpH7-A5/GpH7-B3/GpL16-k0.

B5: GpH7-A5/GpH7-B3 variant Q295_07I/GpL16-k0 (antibody, human IgG1, kappa)
heavy 1: not shown
heavy 2: not shown
light: B1 light
notes: copies: 1 + 1 + 2
On to B5, for which the “He/Con 3a” value is 101 % of GpH7-A5/GpH7-B3/GpL16-k0.

B6: GpH7-A5/GpH7-B3 variant S298_03V/GpL16-k0 (antibody, human IgG1, kappa)
heavy 1: not shown
heavy 2: not shown
light: B1 light
notes: copies: 1 + 1 + 2
B6: the “He/Con 3a” value was 103 % of GpH7-A5/GpH7-B3/GpL16-k0.

B7: GpH7-A5/GpH7-B3 variant Q295_18N/GpL16-k0 (antibody, human IgG1, kappa)
heavy 1: not shown
heavy 2: not shown
light: B1 light
notes: copies: 1 + 1 + 2
Regarding B7, the “He/Con 3a” value is 85.7 % of GpH7-A5/GpH7-B3/GpL16-k0.

B8: GpH7-A5/GpH7-B3 variant S239_14T/GpL16-k0 (antibody, human IgG1, kappa)
heavy 1: not shown
heavy 2: not shown
light: B1 light
notes: copies: 1 + 1 + 2
With B8, the “He/Con 3a” value was 93 % of GpH7-A5/GpH7-B3/GpL16-k0.

B9: GpH7-A5/GpH7-B3 variant P331_14T/GpL16-k0 (antibody, human IgG1, kappa)
heavy 1: not shown
heavy 2: not shown
light: B1 light
notes: copies: 1 + 1 + 2
Turning to B9, the “He/Con 3a” value was 67.8 % of GpH7-A5/GpH7-B3/GpL16-k0.

B10: GpH7-A5/GpH7-B3 variant S298_06M/GpL16-k0 (antibody, human IgG1, kappa)
heavy 1: not shown
heavy 2: not shown
light: B1 light
notes: copies: 1 + 1 + 2
As to B10, the “He/Con 3a” value was 87.2 % of GpH7-A5/GpH7-B3/GpL16-k0.

B11: GpH7-A5/GpH7-B3 variant P331_11K/GpL16-k0 (antibody, human IgG1, kappa)
heavy 1: not shown
heavy 2: not shown
light: B1 light
notes: copies: 1 + 1 + 2
With B11, the “He/Con 3a” value was 61.8 % of GpH7-A5/GpH7-B3/GpL16-k0.

B12: GpH7-A5/GpH7-B3 variant S267_19Q/GpL16-k0 (antibody, human IgG1, kappa)
heavy 1: not shown
heavy 2: not shown
light: B1 light
notes: copies: 1 + 1 + 2
For the molecule B12, the “He/Con 3a” value is 64.3 % of GpH7-A5/GpH7-B3/GpL16-k0.

B13: GpH7-A5/GpH7-B3 variant Q295_04F/GpL16-k0 (antibody, human IgG1, kappa)
heavy 1: not shown
heavy 2: not shown
light: B1 light
notes: copies: 1 + 1 + 2
B13: the “He/Con 3a” value was 75.1 % of GpH7-A5/GpH7-B3/GpL16-k0.

B14: GpH7-A5/GpH7-B3 variant P331_18N/GpL16-k0 (antibody, human IgG1, kappa)
heavy 1: not shown
heavy 2: not shown
light: B1 light
notes: copies: 1 + 1 + 2
On to B14, for which the “He/Con 3a” value was 67.1 % of GpH7-A5/GpH7-B3/GpL16-k0.

B15: GpH7-A5/GpH7-B3 variant Q295_06M/GpL16-k0 (antibody, human IgG1, kappa)
heavy 1: not shown
heavy 2: not shown
light: B1 light
notes: copies: 1 + 1 + 2
Take B15: the “He/Con 3a” value is 100 % of GpH7-A5/GpH7-B3/GpL16-k0.

B16: GpH7-A5/GpH7-B3 variant P331_19Q/GpL16-k0 (antibody, human IgG1, kappa)
heavy 1: not shown
heavy 2: not shown
light: B1 light
notes: copies: 1 + 1 + 2
As to B16, the “He/Con 3a” value is 73.9 % of GpH7-A5/GpH7-B3/GpL16-k0.

B17: GpH7-A5/GpH7-B3 variant Q295_15Y/GpL16-k0 (antibody, human IgG1, kappa)
heavy 1: not shown
heavy 2: not shown
light: B1 light
notes: copies: 1 + 1 + 2
As for B17, the “He/Con 3a” value is 81.5 % of GpH7-A5/GpH7-B3/GpL16-k0.

B18: GpH7-A5/GpH7-B3 variant Q295_16H/GpL16-k0 (antibody, human IgG1, kappa)
heavy 1: not shown
heavy 2: not shown
light: B1 light
notes: copies: 1 + 1 + 2
For B18, the “He/Con 3a” value is 80.2 % of GpH7-A5/GpH7-B3/GpL16-k0.

B19: GpH7-A5/GpH7-B3 variant S239_09D/GpL16-k0 (antibody, human IgG1, kappa)
heavy 1: not shown
heavy 2: not shown
light: B1 light
notes: copies: 1 + 1 + 2
Consider B19, for which the “He/Con 3a” value was 156 % of GpH7-A5/GpH7-B3/GpL16-k0.

B20: GpH7-A5/GpH7-B3 variant P331_09D/GpL16-k0 (antibody, human IgG1, kappa)
heavy 1: not shown
heavy 2: not shown
light: B1 light
notes: copies: 1 + 1 + 2
As to B20, the “He/Con 3a” value was 71.6 % of GpH7-A5/GpH7-B3/GpL16-k0.

B21: GpH7-A5/GpH7-B3 variant Q295_05P/GpL16-k0 (antibody, human IgG1, kappa)
heavy 1: not shown
heavy 2: not shown
light: B1 light
notes: copies: 1 + 1 + 2
B21: the “He/Con 3a” value is 74.4 % of GpH7-A5/GpH7-B3/GpL16-k0.

B22: GpH7-A5/GpH7-B3 variant S298_09D/GpL16-k0 (antibody, human IgG1, kappa)
heavy 1: not shown
heavy 2: not shown
light: B1 light
notes: copies: 1 + 1 + 2
Turning to B22, the “He/Con 3a” value was 62.7 % of GpH7-A5/GpH7-B3/GpL16-k0.

B23: GpH7-A5/GpH7-B3 variant Q295_11K/GpL16-k0 (antibody, human IgG1, kappa)
heavy 1: not shown
heavy 2: not shown
light: B1 light
notes: copies: 1 + 1 + 2
Regarding B23, the “He/Con 3a” value was 81.8 % of GpH7-A5/GpH7-B3/GpL16-k0.

B24: GpH7-A5/GpH7-B3 variant S239_18N/GpL16-k0 (antibody, human IgG1, kappa)
heavy 1: not shown
heavy 2: not shown
light: B1 light
notes: copies: 1 + 1 + 2
With B24, the “He/Con 3a” value is 104 % of GpH7-A5/GpH7-B3/GpL16-k0.

B25: GpH7-A5/GpH7-B3 variant S267_01G/GpL16-k0 (antibody, human IgG1, kappa)
heavy 1: not shown
heavy 2: not shown
light: B1 light
notes: copies: 1 + 1 + 2
For the molecule B25, the “He/Con 3a” value was 53.3 % of GpH7-A5/GpH7-B3/GpL16-k0.

B26: GpH7-A5/GpH7-B3 variant S239_02A/GpL16-k0 (antibody, human IgG1, kappa)
heavy 1: not shown
heavy 2: not shown
light: B1 light
notes: copies: 1 + 1 + 2
For the molecule B26, the “He/Con 3a” value is 70.9 % of GpH7-A5/GpH7-B3/GpL16-k0.

B27: GpH7-A5/GpH7-B3 variant P331_10E/GpL16-k0 (antibody, human IgG1, kappa)
heavy 1: not shown
heavy 2: not shown
light: B1 light
notes: copies: 1 + 1 + 2
B27: the “He/Con 3a” value was 68.7 % of GpH7-A5/GpH7-B3/GpL16-k0.

B28: GpH7-A5/GpH7-B3 variant S298_02A/GpL16-k0 (antibody, human IgG1, kappa)
heavy 1: not shown
heavy 2: not shown
light: B1 light
notes: copies: 1 + 1 + 2
Take B28: the “He/Con 3a” value was 151 % of GpH7-A5/GpH7-B3/GpL16-k0.

B29: GpH7-A5/GpH7-B3 variant Q295_02A/GpL16-k0 (antibody, human IgG1, kappa)
heavy 1: not shown
heavy 2: not shown
light: B1 light
notes: copies: 1 + 1 + 2
As to B29, the “He/Con 3a” value is 111 % of GpH7-A5/GpH7-B3/GpL16-k0.
